# Results as given in the domain aggregation screens of Martell et al. (2025).
# Assay: soluble fraction after stress (log2 fold change); higher = more stays soluble; pooled small domains, quantitative proteomics
# Conditions: stress: 50 degC
# Outline: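 Pooled custom libraries of small protein domains were measured in a high-throughput format, with quantitative proteomics as the read-out. Each library was stressed at 50°C. Aggregation propensity is given as the base-two logarithm of the fold change in how much of each protein stays soluble after the stress. Higher values mean a larger share of the protein remains in solution.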
row,Sequence,soluble fraction (log2)
1,HMYRPQQEFTMRDLFQNNLNGSESASVRRDALGAELGIGYGNAKRFLERLNHYGVSREEFTAALEKLESE,-0.224
2,HMEAYMVPNVKNKTLNEAQQALSNQKLKGLVIDSSYVKGVPDGMVLDQNPAGGARVKEGRTIYLTVTTS,0.318
3,HMGTRIQAVMEDIQSRIAARTYLPGTRLPSVRAQAQAMQVSVSTVVEAYERLAAEGVIASRPGSGFYVAGP,-1.44
4,HMNDRLFQILYLLLEKGTMTAPELSRALEVSVRTIYRDIDALSLAGVPVYATQGKNGGVSLLPNY,-1.24
5,HMLTALTDREEEILVLLAHNLSNKEIAKRLNLSVNTVRNHTSHIYEKLNVTSRRKAITLAQSLHLLPP,-1.35
6,HMGELTNALATLSERERDVARLVAQGLDNRQIAAQLFLSEGTVRNRISDILDKLALTNRTQLAIAWLHAE,-0.588
7,HMLSKGDRVSWDTPQGRTQGEVVEKKTKDFEHDGQKFTASDDDPAFIVKSEKSGAEAAHKGSALNK,0.0884
8,HMGYDSYDADTIPKLKIGSIVEHPKFGEGSIISKAGAEVTIAFKIKGVKKINLEYTSIKVLK,-0.935
9,HMELQYSQEIEEAQKILENLGLYRGEIDGINGINTKSAIREFQRKSGLVVDGILGPNTTNALSKGSDAYIT,0.094
10,HMTVVLPGESLTVNIIQEGKELGQGVGYLDDGTMVVIEDGRRYIDQTIEVTVTRVLQTVAGRMIFAQLT,-0.646
11,HMPLTKKLETLFSLFPKYEKELKKKGVTRIHVWANYKEEYPDGIGRSQFIHYYSFWKKQVSP,-0.118
12,HMDVMNEIQQKAFDIYIQSASLKNDFTPISERALAKKLHDMGLKSSMSAIGRWKKKFGWVQSLQNKVTLA,-0.128
13,HMEPEDVIAMERYLASGAIKGIGVTLAGRIIKKFQKETFHIIEEEPERLSEVKGISEKLAREIYQQFTQK,-0.873
14,HMDNTFEEVKEKLLDLLKERPLTPAEVSKRMEEDKNILAQVIQYLLEEEIIKTEDGMLSKVIG,-0.0569
15,HMSYKDIKEASDTGTYRDEENNIDVKWQKLFNGHNEYFDIEAYRDGERVEINNQQADRYIYLIKQEMD,0.025
16,HMGEFVQLKNRTGSVIEAKILNYQNGKVKLQRKDGVIFVVPISIFDRMSSSIIENKAKEMDSF,0.00542
17,HMAEVDREEALRIALAHAAVARRDVRNLKIERGEENGVPVYKVEFETAFGDFDVAVSRRSGDVVDAD,0.0689
18,HMRGGKGTVPDVTGMDAAAAVRILEKAGMNVAYIRGAGFVAEQTPAAGTKLKKGDKAYITLSWK,-0.0707
19,HMEVKVSGHLEAIGGVYHMKLSWIDDAGKRRRKSKSTGLAERGNKKRANDMLIDFMREQEAEIAASGD,-1.02
20,HMSNTPHSREVLLEMDAVRRLLAVGEEKGEVDRADLQGAFEEAELGRGDLDGVLSILREYDVPLAR,0.0709
21,HMRGGWESLTDREREIAVLAAEGHSNRTIASTLFISDRTVQSHVSRALRALGVDSRTGIPSLVTTATR,-0.0688
22,HMQSDQLSDREREILRLIGSGRTNQEISQELQVSGSTVRTHLQHILDKLGLENRNQAVLYAIRIGLAAPP,-0.125
23,HMESDRVAHVVAPGETLFSISGKYGIGMGELVAANPVLESRPPRTGDTLLIRLPENPLPAETDAETLS,0.121
24,HMEDGEALARAVASLPGKYREVLFLKYSHGYSVDEIALILSMSKENVKKTIQRARKKLEQLLESE,-0.898
25,HMLRVVSTRQAFDIVRGWADAHPQDPEHNKTLDELEELAKKEVWDDWSRTNEIAERLNALLVSIGANVRTA,-0.742

row,Sequence,soluble fraction (log2)
1,HMTEEDVVIFSGLSDRDLKMVQTELANSGIKYTLPTSGTVSVPNSEIARAQMVLAMAGIPRS,0.167
2,HMAFDGIVLKNITNALKELINGKINKIQQSSKDNLTLSIYNQKSYNLYIDISANNYRVNLTTHSE,0.103
3,HMQTTITITNTVTGQKAQFPPPFNPMSLSKIGVDETFEKEVFVDGVDTFGYGLDGYLTFYELKDFLRSYQ,-2.5
4,HMGSIMIIVLKENAPQQAAEKLMKEIRAKGLQIDVSKGTRKTVLGLVGDTSVIDMEHVQGYDYVDKVLRV,0.0715
5,HMDILPRMVASEMRAVGVPPERMTREEKGTVIRNLMNAGIHQMKGAVVEIARQLHLSEPTVYRYIKREKG,-0.327
6,HMIKISDYLSEEDLNFIKEMEKIYPYFDFDSEGNLILTKSIDELKDKYGFDEAFVSRLDTVLNSR,0.0178
7,HMTTIKLTQEDVEKIKSLPKRTFLIGNLQQTGLYDEKTRRFYYLDANGEWNGRLAIINTPPPPPPPP,0.199
8,HMSENDTILAKFVSVMGNKNLELVIFPDIAYLKGQVSNPEDKTKAETVAQSLLGGKPLVSLIEFE,0.218
9,HMIGKDLLGYEVFSESGDLVGILKDVMWLPHSDVYVITNGGKELLIPVIPEVVKGINHEQGVIVISPM,0.0196
10,HMETPLSAADFKIVFGEEYEIGTDANGLPKMGSRINRQLQNRFLTWASVNKRKATMSAYQDWVASDPAAQ,-0.336
11,HMGSYIGEAKAKEIALSHAGVSASQATFVRSQFEYDDGRAVYDVDFWSGNKEYDYEIDAKSGTIVSYDFD,-0.398
12,HMETFGEKDLDELIGRNVELITHDGKVREGLVDSVDRYNVSLVRYLDAGEVAMMVRRREVKAVRLK,0.0419
13,HMPATTMMVVVDRDLPYGHVLTDRDVRLETRRATSPGASVAFTSIDPVLGQSLTRPLGAGTPVGRADLR,-0.155
14,HMTNEWRKILSNLNGKYQIVMELFYVDGFSTKEIARMLHITEVNVRSRMVRGRKQLEQILTVR,-0.15
15,HMDNPNVMAQVKSLLASKGLSEQEVKERLKAKGLNIDAMSDAEIAQNRSVIEQTIAELEAEKKKAG,-0.128
16,HMDRETEEYELIRAKLEWLYQKQTGTIRNQTAKILHHLEIAKEEGNYYLYLKIKEEAKQWLVQASMYLD,-0.231
17,HMEAEPRLLDLPPGTRAGRLDKVLAQLLPEHSRSRLQGWIERGGVLVNGKEASVRQVVGPGDQLTVWEEAA,-0.0918
18,HMHLDIGQLVQRILADIQVGKLADGQRKLPAEPVLMERYQVTRYTLRQALKQLSNMGYTYQMHGIGTFVRQ,-0.863
19,HMKLIIVPNLVGQSRRSVEISLQQIGLRIDTVYTEFNPDYPKGTVAWQFPKSGDHIKKGMGLQITVSQG,-0.522
20,HMPEQLLNTRIPLEFAGRRFDASLAELFPDYSRSRLAAWIKDGAARLDGETVAPRHTVRGGEQVEILVRM,-0.238
21,HMNALVAKYKQGVTEEQQQGQGIIIIKRVVVRDQEAWVYEKKIFDWGGVSYFRDKQRITASTFNQETAL,-2.86
22,HMITIDADTGKRVYTRKEVADLVGASTQSIRLWEDAGAIPASVRDEGGYRYWYEEDLEAIKAYAS,-0.19
23,HMAISEAERARLQTKIKERNKMARWINTNLNPTSKIRNINPAETVRKLMTQDDADSLERSLDAFMEA,-0.0378
24,HMDDIVPHSTKNHIIKTFLSLMNSLDIITDKNKKSLNQNVHIIFNKFNFSKKEANLFIGVLNRIQKALK,0.552
25,HMAKVDIPHEMVDQRIDEIVEEIKMNLESQNMSLDDYLKRMNQTEAQLRANYEATAAEQVRQGLV,0.314

row,Sequence,soluble fraction (log2)
1,HMGSIEASFEEDVRRYLARKSMTTTEISKKMRQKRPDMSRDQLMTLLANAIKRIKPIKKKIKGTLYLSLE,-1.3
2,HMSAEVMLRRLIDENDPSSENARYILAVMLERKKILAPVDVKNEKKSKMLFYEHQKTGEAFIVRDP,-0.267
3,HMSPSDLSAEAQKVYALLDGRELSFDTLVEESGFDTGSLLAILMRLEMKMLVEHGADQVYRRSG,-0.58
4,HMANIAVTIPTGSSGDRIADILLQAGLIKDKQDFNQAVIAAGAEGKLRAGYFVIPSNATPAEIISILT,-0.695
5,HMIDQSVVVQYLSKLTNTPYLKTREITMGEPYMQFERGEIKFQEYVEDIRALLPGGDRIDADRLRDIWMNS,-1.22
6,HMGYGEQEQEAQKYLALHALMSQDPTLAKMYQAPNQYKLMSHVMEQNGIKNVNDYLTDPQQLP,-0.00068
7,HMPLITAIELDSISARSFQFNTQSGSTYFIEGSTDLKSWDVIAEVKATDSTTTYEDHRKIYHEAYFYRVRL,-2.01
8,HMGKRGKEMQTAVLAILRASDRPYSAYELLESLKDIYPKIAPPTVYRALAALTQRGQIRRLESLNAFI,-0.325
9,HMKKPAERRKELVDAAAHLFAEKGYENTSVRDILDAVGGAPGMFYYYFKSKQDIYVAVMEDF,-3.54
10,HMNRLEFLQGLKAELEGRVPHSIIQENLRYYDSYISDEAAKGQSEEDVVESLGGPRIIARTIVDAA,0.134
11,HMRDGYEKPTEVGEGGRNPAMLSYIGHLRAKGHLSEEDIRSMAHGFNATTFDPPLDRDEVDGLVSRY,0.124
12,HMEKPYTPPANLNEIQSYEELSKAVQYYNKVKDAATTDADRLKAQQSIDTLEDMRKAWDAASST,0.072
13,HMNLKDINLNVRHYKIIDFVREHGYASIETLTRQFGVSAQTVRRDIIYLDNQAVLKRHHGGVGTLPG,-1.99
14,HMTDLQNDIQAFNLKKMSYQHETKKLEEKRNPEKLEKLEQDIQALYLRIMENPNMRAFDSAKQALYLQIM,-0.773
15,HMSGDKKLQMNLILEFAQQNESFRTKDIEELLQIRSSRARKLISDLVTEGRLEALGENRNRRYQLI,-0.985
16,HMPDFAENAVYGKQREDSLYAHAYKHFQLGDTTTVRAAEHLSAEIYPLGQHRPKFMFLNAVTR,0.0766
17,HMNIYFNIEDAVANAVVENGKMSAAIYEKNVDTGEVAKLAEVSMPVMGGNINITKTLLTKALISQLP,-0.384
18,HMSVALSENIKTRRKALKMSQEYVAEQLDISRQAVAKWEAGKSEPTTENLVKLAALFEMSVSELVE,-0.369
19,HMSTASPEELRQTPERRRLIEYLREHGGHGRTSEIAAALGIDDSTASRLLRRLADNGLIVRTQYGEYTLLQ,0.0183
20,HMFHDPTMEETLINLKGITNEVLSLLSSSKIKKLEDLAEMSVPELRDIVENISDEEASALIMEARKPWF,-0.446
21,HMTNPPTPADTLFNTVRGVLQSILKSPMKDTEVASALNVSKAQARSWLQRLSDEGLIEKRKNPTAYVL,-0.238
22,HMINLGDLEVGHTYHTRMPILQNDLKYSHKSPIQIVAEHSIVYGVRVYIGFLNEHRVLVTADDV,0.0223
23,HMVQQTEEDVIRDMYVEGKIFTIGEEVTDTYTGVTGKIIRRGTNYVTFMSEDGETYKKWLYEIELA,-1
24,HMAENTIPSVIGKTLSDATFLLESYGYERGGVSEEYSEMPKGVVIRQSPQAGSSADPGTKVNLVVSLGEEI,0.174
25,HMSGSIIQQAENLERQFGDTREAILGTLSDPKMSEEILETLMERYNKQHGTNWDKNTWAEEWAKANK,0.23
